Experiment: soluble on expression in E. coli; label from the status in PepcDB or PDB records

Sequence | soluble on expression in E. coli
MSLIPSSGPSAKKVVSLGQQSEAQIPEVELIDVNHAVAQSLYKAQVNQSFTQFGDGYASTGTLNIGDVLDIMIWEAPPAVLFGGGLSSMGSGSAQQTKLPEQLVTARGTVSVPFVGDISVVGKTPGQVQEIIKGRLKKMANQPQVMVRLVQNNAANVSVIRAGNSVRMPLTAAGERVLDAVAAVGGSTANVQDTNVQLTRGNVVRTVALEDLVANPRQNILLRRGDVVTMITNPYTFTSMGAVGRTQEIGFSARGLSLSEAIGRMGGLQDRRSDARGVFVFRYTPLVELPAERQDKWIRQGYGSEAEIPTVYRVNMADAHSLFSMQRFPVKNKDVLYVSNAPLAEVQKFLSFVFSPVTSGANSINNLTNEGHHHHHH | soluble
QIKDHLIIVGFGFSGKTISKAAKAAGIPYLIIEMNPEIVQHEKAKGEKIQYGDATFGAVLEHAGIKNARVLVTGIADSSSTGKIVEKAKELNPNICVIVKVHDLQEMKRLNSMGADEIIPEEYETSVEIFVRLLEKYLVPRENIEK | not soluble
MGSDKIHHHHHHAIKNCQIHTFSLSHDSVSGLDTVKFTIDQLTGRIFNIDSLPFGTKIEKVVCKIGFANSSVIGGVEASPEAYPDSTYYLSSLSDSIDFSAPVKFVVHAYDQVTTKVYMAQVNIHQVVPDSMVWSMYANPMIGITVKDQKVVTYDYNGSENYFMYVKPAESGKPYQLYYAPVSAPKGWQSLSLTGLPSDGLLISQITEYNNALYVPATNGTLYRSEDGLTWSAVENAPSVKYVLGSVKQGTKQPSALATIVDQEGKLAFYAMNESMEWIAGDAVPSGFPVTGFSNLQYAAMYHEYLMTASGRTVDNQVVNTTWATMDGISWALMASGDANFTKREGAMITNYDDKFFLIGGIDASNKALKDMYQSIDYGISWSLIDSMVVLPTDYAARGFSSIIVDKENFVNIFGGKISTGSNDLNQLWRGRINRLIPKE | not soluble
GPGSMHRIVKVNVGGRYFQTRLSTLLRFPDTSFARMFEGLASTSALPPTLSPPPQPTESEDVFVDANPDVFEKVLGFLRTNRIQLPLNDECLRAELVHHLNSWDLMPHAFPASAADGAVEGEEAHRIELPDVCVVQLCDHMQHDQGVKRHAMTITYGADGFQLRKLTQMIRRDLNQQLSSTYWQCYQTNERAAFFATTKVANGAADILTTSITQQVVQHTERLGYHLATSYVTL | not soluble
MGSDKIHHHHHHMENTSYIALSRQTALWRQLDVVSNNLANMNTNGYQAEQTLFSEYLMNTRDSHFRLPEKLAYTQDAGTYRDLTAGPLEHTGNPLDLAINGEGYFEVEDGAGPAYTRGGRFTLDAEGKVVTADGRPLMTDAGTPLVIAPNEGEVTISATGTVSTENGPVGKLRLVSFEDEQKLRRIGGGLFDSGDQQANPITEPRIEQGMIEKSNVNPVVEMTRMIQVQRSYEAANKLIESENDRQLNAYAVLSGTK | not soluble
MRHSLWLLLAAILSLPAQAGTECRDIHDRDLRRMCNALERGDSGDCGDIDSRDMRRYCGALLAPGQRYDCDDIRDGDTRRQCRAIVRGDRKRCDDIDSRDMRRQCRAVVSRAPWQCDGIDDRDMRRICRVILSR | soluble
TRSVKSCVGKEFCRFGTQYTTRLGIRLEKTFEYIDTPHKFKMGVSGCPRSCVESGVKDFGIISVENGFQIYIGGNGGTEVEKAEFLTTVETEDEVIKLCGALMQYYRETGIYAERTAPWLRRLGFENVKEVLLD | not soluble
MSLENIIARRYAKAIASRADINDFYQNLCILNSAFVLPKFKNIIESNEIKKERKMEFLDSFFDIKNSSFQNFLRLLIENSRLECIPQIVKELERQKAFKENIFVGIVYSKEKLSQENLKDLEVKLNKKFDANIKLNNKISQDDSVKIELEELGYELSFSMKALQNKLNEYILKIEGHHHHHH | not soluble
MSGAAAASAAGYDRHITIFSPEGRLYQVEYAFKATNQTNINSLAVRGKDCTVVISQKKVPDKLLDPTTVSYIFCISRTIGMVVNGPIPDARNAALRAKAEAAEFRYKYGYDMPCDVLAKRMANLSQIYTQRAYMRPLGVILTFVSVDEELGPSIYKTDPAGYYVGYKATATGPKQQEITTNLENHFKKSKIDHINEESWEKVVEFAITHMIDALGTEFSKNDLEVGVATKDKFFTLSAENIEERLVAIAEQD | soluble
MDVQDIIGIALNLATAGSLAAKVLPGCGGKKKGKSVEGESTSSSKGNGAKTPEGKEGSEARTPSAAGSAAPTAPAEGAAPAAGAPAAVAPKPPMAATHDPNYQTLAGLDNNVFGKKDGAAPAAGGGGPAAPADQNAKAATHDPNYQTLAGLNNNVFDKKDGVGAPAAAPVAAGGDKKPIQPNDKNKKAATMDPNYQTLAAVGGDVFGADKKAGGGGGDKKPIQPNNKGQKAATMDPNYQTLAAVGGDVFGADKKKK | soluble
SPGRSSTSSGSTRYISFSGIESALSSLKNFQSCISSGMDTVSSVALDLVETQTEVSSEYSMDKAMVEFAKMDRELSHYVKAVQSTINHVKEERPEKVPDLKLLVEKKFLALQDKNSDADFKENEKFVQFKQQLRELKKQYGIHADRENDLTEGVDEDMIVTQSQTNFICPITQLEMKKPVKNKMCGHTYEEEAIVRMIESKHKRKKKACCPKIGCSHTDMRMSDLIPDEALRRAIESHNKKKKRHSE | soluble
MKTAYIAKQRQISFVKSHFSRQLEERLGLIEVQAPILSRVGDGTQDNLSGAEKAVQVKVKALPDAQFEVVHSLAKWKRQTLGQHDFSAGEGLYTHMKALRPDEDRLSPLHSVYVDQWDWERVMGDGERQFSTLKSTVEAIWAGIKATEAAVSEEFGLAPFLPDQIHFVHSQELLSRYPDLDAKGRERAIAKDLGAVFLVGIGGKLSDGHRHDVRAPDYDDWSTPSELGHAGLNGDILVWNPVLEDAFELSSMGIRVDADTLKHQLALTGDEDRLELEWHQALLRGEMPQTIGGGIGQSRLTMLLLQLPHIGQVQAGVWPAAVRESVPSLL | soluble
MSFSESRHNENCLIQEGALLFCEQAVVAPVSGDLVFRPLKIEVLSKLLAFIDGAGLVDTTYAESDKWVLLSPEFRAIWQDRKRCEYWFLQQIITPSPAFNKVLALLRKSESYWLVGYLLAQSTSGNTMRMLGEDYGVSYTHFRRLCSRALGGKAKSELRNWRMAQSLLNSVEGHENITQLAVNHGYSSPSHFSSEIKELIGVSPRKLSNIIQLADK | not soluble
MGSDKIHHHHHHMTNLNEKQLITEIVGLARSQGLTVHSENAQLNETGMDFQVVFAKDDTGMPWVLRKPRRSDVVERASAEGITLAFLRANLTADVPDWRIHTPELIAYPMLKGTPAAGIDLEQKQYVWNMDHQPPSDDFVRTLADILAELHGTDQISAGQSGIEVIRPEDFRQMTADSMVDVKNKLGVSTTLWERWQKWVDDDAYWPGFSSLIHGDLHPPHILIDQNGRVTGLLDWTEAKVADPAKDFVLYQTIFGEKETARLLEYYDQAGGRIWAKMQEHISEMQAAYPVEIAKLALQTQQEEHINMALEALGVTSD | not soluble
MGSDKIHHHHHHMDKLASEYKVLIVDDVPTNVMLVQAILKKEGYTLLTCDSGTKALRIANEKHPNLILLDIMMPEMDGYEVLQHLKSNPETTDIPVIIMSALSDMQSIVKGYQLGATEYVTKPFQREELVKRVAHRYELYSIKRIKAELENTIESRDTLYSVIAHDLRSPLGSLKMMNNAILMMVDKERVGDEVYEMIQMMNKTSEEIFLLLDNLLKWAKNRLNKQHVYKQQTDINSIIDSTAEMYVPMAAQKGVKIILENLDKELVGLVDIDMLKTIIRNLISNAMKFSFEGGTITLSSRSEGDFVTVSVKDTGKGIKKEDQDKLLKQDSHFTTYGTKNEKGSGLGLMLCKDFVELHGGKLWFESEGEGKGTTFLFSMKALNQEA | not soluble
MKYVASFSGGKDSAAMLLLILEKRLLLDEIVFIDTGLEFKEIYDIIDDFEKRINFKITRIKAEKTFEEYFYTVNKQGKRKGQIWGFPYTLGAWCNSRLKLAPANKYFNSIGEHKRYIGIAFDEPSRYRRLEKNCIAPLYEAKMTEKDCLKYLEKKGFYYDIHHRFKRTGCY | not soluble
EDRVGERRIMIDKKEAIEHFRRHPGDGMIKLDLLTTAYNDINLIPPIYQPFLQDKQYFLGEVGQEPNTRMIYMSTFNQNGEEHPIILISLIDEIEITSTE | not soluble
MAHHHHHHMCISELRSLRGHGRNVYIIYDVAKEGTPPPRHFASTSGWGMIAVSFPKVTNYDEWEKQLKAARIIMNCPDGMDVKAMCAWMERDGDTDEQTKYWKMVETHMEKVGPIPRHIFYAKGINARFGAVENALEAINSRYADDRFILPGGGLWYAKDPSQKLVRIVRIRGERGNERFRNAPICYFLGSRSANILAKAMSEKDFLLLVWGVRKTISSAYLEKFCLRALIFGRFFSAMAEELKELNSPAHDIQDTVLKANPGAHPTEICEIPGVGKIDAKQNINHRVLYIPMLRDFPLVDCFFFVESPRRTLVGLQMTTAGEHHTTTSTVRQFTEHLSKFFNGWDEFAQGLSWRDYLCAARRQHADEWLAEMWCRRPAECGRC | not soluble
MGKSYKEIIELLDCNQTTIWRNVKKYEEFGLDSLLQETRGGRNHAYMTVEEEKAFLARHLKATEAGEFVTIDALFQVYKKECG | not soluble
MPKAEGRIFDFKGHDAIRTDFLEAIDFDGKDEYIKIETDEFSAVCPFSGLPDIGRVIIEYYPDGGKIVELKSLKYYFVSFRNVGIYQEEATKRIYEDLKNLLKTDRIRVTVIYNIRGGIKTTTQMGSLEGKKSGEVE | not soluble
MGSDKIHHHHHHMKIAFDAKRITHNATGLGNYSRFVVNSLSASFPEHTYQLYTPGKGKEALRKRIEERPSVSFHYPEGRFDKLFPSLWRTSGLTATLRKEHVDLFHGLSNEIPMNLKQNGIPAVVTIHDLIFLRYPQLYKPIDRSIYTYKFKQACLRSDKIIAISRQTMRDIRDFFHIPESKIEVVYQGCDPIFGQAVQEDVKSSVREKYQINGPYILYVGSIEERKNLLLLVKALKKLKEDISVIAIGKHTPYTDTVETYIRENNLSGRVHILTHIPFNELAAFYQMATLFVYPSFFEGFGIPILEAQLAGIPVIAATGSCLEEAGGPSALYTDPRNEQELRGLIESVLNEPKLAESMRSGGRENIRRFMPDVLAAHFMRVYENISRS | not soluble
MGSDKIHHHHHHMVNKNLYTLLVCLLLAGCDLIDYHPYDVRISGETDVNAHNIEQIEAKCKGKTTIRFITMGDSQRWYDETEDFVKEVNKRDDIDFVIHGGDMSDFGLTKEFLWQRDIMNGLKVPYVVLIGNHDCLGTGAETYQAVFGPTNFSFIAGNVKFVCLNTNALEYDYSEPIPNFGFMEQELTDRADEFEKTVVSMHAHPFADVFNDNVAKPFQYYITQYPGLQFCTAAHNHGFDDRILFDDDVHYIVSDCMKSRSYLVFTITPEKYEYELVEY | not soluble
MGSDKIHHHHHHMEQDTSMITWHHSPAHLFVPNAFYIVTASTLCHQPLFNSPQKLHILQSTLFEIMQAYNWRLQAWAVFSNHYHFIAQSPEDSSSLKPLIQRFHSQTARAINVLDGSKGRKVWFQYWDTCLTYEQSYLARLNYVHNNPVKHGASRECRAVSLLFSYMV | not soluble
SKDFTWEVGYNITWNDSKITKLTTTFNPDYQGIDAGTNQKHQVGEMPGTFYLYQQVYDENGKPIQNAFVDRNNDGQITEADRYLTHKSPMAKVYMGFSSQFSYKKWDLGFNLRANFGNYVYNGVASGNSTSNNYGGKGFVTNLYNGFQDTGFTLLNTSEQMASDYFLENASFLKMDNITLGYSFQNLFAAKLSGRISASVQNVFTISKYSGLDPECGAIDSNIWPRPRTYTIGLNLNF | not soluble
MGSDKIHHHHHHMTAPHTETDSTQQFLDSMPELKPGEKFQFACHPGVACFNACCSDLTMPLSPYDVLRLRQETGQDSEGFISTFARVETYPDTNFPILYMKMTDGPVRPCPFVSQAGCQVYPNRPAACRTYPLGRGTRVDAQGRLVEQYFIIAEQHCHGFAEEPVWTSEEWLQDQGLARYNYFGDRYTRLMGRAMETGLVLTQKQLTLCLLALYEADRFGAFISGVNLFARLNVSAQEQARILEDEEARLEFGFDWTELVLFGDNERLQVVNP | not soluble
